Tests used:
[1] = biological target: T1, wild-type tau (441 amino acids; tau441; NP_005901.2) (human, UniProt P10636 1-758); assay: wild-type tau ELISA, 293 cell supernatant
T1 construct: Unphosphorylated recombinant tau441 used in the wild-type tau ELISA; also called wt tau441; wtTau

[2] = biological target: T2, extracellular tau in the form of paired helical filaments (ePHF tau) (UniProt P10636-8 1-441, limits assumed); assay: ePHF tau ELISA, ePHF coated; antibody at 166.7 ng/ml; anti-mouse-HRP
T2 construct: Aggregated, hyperphosphorylated tau preparation; not a single defined polypeptide

[3] = biological target: T2, extracellular tau in the form of paired …; assay: ePHF tau ELISA, ePHF coated; antibody at 1000.0 ng/ml; anti-mouse-HRP
[4] = biological target: T2, extracellular tau in the form of paired …; assay: ePHF tau ELISA, ePHF coated; antibody at 500.0 ng/ml; anti-mouse-HRP
[5] = biological target: T2, extracellular tau in the form of paired …; assay: ePHF tau ELISA, ePHF coated; antibody at 0.7 ng/ml; anti-mouse-HRP
[6] = biological target: T2, extracellular tau in the form of paired …; assay: ePHF tau ELISA, ePHF coated; antibody at 2.1 ng/ml; anti-mouse-HRP
[7] = biological target: T2, extracellular tau in the form of paired …; assay: ePHF tau ELISA, ePHF coated; antibody at 55.6 ng/ml; anti-mouse-HRP
[8] = biological target: T2, extracellular tau in the form of paired …; assay: ePHF tau ELISA, ePHF coated; antibody at 6.2 ng/ml; anti-mouse-HRP
[9] = biological target: T2, extracellular tau in the form of paired …; assay: ePHF tau ELISA, ePHF coated; antibody at 18.5 ng/ml; anti-mouse-HRP

T1 sequence (P10636 other isoform, or with tags, fused parts or gaps limits assumed): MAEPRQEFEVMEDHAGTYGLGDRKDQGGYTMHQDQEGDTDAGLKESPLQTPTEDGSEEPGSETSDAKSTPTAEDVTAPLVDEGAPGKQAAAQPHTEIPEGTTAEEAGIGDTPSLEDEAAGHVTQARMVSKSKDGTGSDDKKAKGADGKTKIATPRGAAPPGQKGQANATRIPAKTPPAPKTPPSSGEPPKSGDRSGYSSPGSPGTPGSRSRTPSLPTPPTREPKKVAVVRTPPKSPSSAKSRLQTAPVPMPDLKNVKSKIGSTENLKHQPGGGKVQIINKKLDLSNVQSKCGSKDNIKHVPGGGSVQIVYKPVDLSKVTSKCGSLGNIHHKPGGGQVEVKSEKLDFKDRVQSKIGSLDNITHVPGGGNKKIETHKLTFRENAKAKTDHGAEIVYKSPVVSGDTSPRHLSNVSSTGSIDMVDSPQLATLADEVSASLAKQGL
T2 sequence (P10636 other isoform, or with tags, fused parts or gaps limits assumed): as above

B1: IPN002 scFv-HA expressed from TAU_ITR154 (CAG, LH, (G4S)5) (scFv)
scFv: DVLMTQTPLSLPVSLGDQASISCKSSQSIVHSNGNTYLEWYLQKPGQSPKLLVYKVSNRFSGVPDRFSGSGSGTDFTLKISRVEAEDLGTYYCFQGSLVPWAFGGGTKLEIKGGGGSGGGGSGGGGSGGGGSGGGGSEVHLVESGGALVKPGGSLKLSCAASGFSFSKYGMSWVRQTPDKRLEWVATISSSGSRTYYPDSVKGQFTISRDNAKNTLYLQMSSLKSEDTAMYYCSISWDGAMDYWGQGTSVTVSS
notes: also called CAG-IPN007-LH-G4S5
[1]
  binding result: binds

B2: IPN002 scFv-HA expressed from TAU_ITR137 (CAG, HL, G4S) (scFv)
scFv: EVHLVESGGALVKPGGSLKLSCAASGFSFSKYGMSWVRQTPDKRLEWVATISSSGSRTYYPDSVKGQFTISRDNAKNTLYLQMSSLKSEDTAMYYCSISWDGAMDYWGQGTSVTVSSGGGGSDVLMTQTPLSLPVSLGDQASISCKSSQSIVHSNGNTYLEWYLQKPGQSPKLLVYKVSNRFSGVPDRFSGSGSGTDFTLKISRVEAEDLGTYYCFQGSLVPWAFGGGTKLEIK
notes: also called CAG-IPN002-HL-G4S; H(G4S)L
[1]
  binding result: binds

B3: IPN002 scFv-HA expressed from TAU_ITR155 (CAG, LH, (G4S)6) (scFv)
scFv: DVLMTQTPLSLPVSLGDQASISCKSSQSIVHSNGNTYLEWYLQKPGQSPKLLVYKVSNRFSGVPDRFSGSGSGTDFTLKISRVEAEDLGTYYCFQGSLVPWAFGGGTKLEIKGGGGSGGGGSGGGGSGGGGSGGGGSGGGGSEVHLVESGGALVKPGGSLKLSCAASGFSFSKYGMSWVRQTPDKRLEWVATISSSGSRTYYPDSVKGQFTISRDNAKNTLYLQMSSLKSEDTAMYYCSISWDGAMDYWGQGTSVTVSS
notes: also called CAG-IPN0014-LH-G4S6
[1]
  binding result: binds

B4: IPN002 scFv-HA expressed from TAU_ITR139 (CAG, HL, (G4S)3) (scFv)
scFv: EVHLVESGGALVKPGGSLKLSCAASGFSFSKYGMSWVRQTPDKRLEWVATISSSGSRTYYPDSVKGQFTISRDNAKNTLYLQMSSLKSEDTAMYYCSISWDGAMDYWGQGTSVTVSSGGGGSGGGGSGGGGSDVLMTQTPLSLPVSLGDQASISCKSSQSIVHSNGNTYLEWYLQKPGQSPKLLVYKVSNRFSGVPDRFSGSGSGTDFTLKISRVEAEDLGTYYCFQGSLVPWAFGGGTKLEIK
notes: also called CAG-IPN003-HL-G4S3; H(G4S)3L
[1]
  binding result: binds

B5: IPN002 scFv-HA expressed from TAU_ITR153 (CAG, LH, (G4S)4) (scFv)
scFv: DVLMTQTPLSLPVSLGDQASISCKSSQSIVHSNGNTYLEWYLQKPGQSPKLLVYKVSNRFSGVPDRFSGSGSGTDFTLKISRVEAEDLGTYYCFQGSLVPWAFGGGTKLEIKGGGGSGGGGSGGGGSGGGGSEVHLVESGGALVKPGGSLKLSCAASGFSFSKYGMSWVRQTPDKRLEWVATISSSGSRTYYPDSVKGQFTISRDNAKNTLYLQMSSLKSEDTAMYYCSISWDGAMDYWGQGTSVTVSS
notes: also called CAG-IPN006-LH-G4S4
[1]
  binding result: binds

B6: anti-tau antibody MC1 expressed from viral genome construct MC1HIRESL (TAU_ITR75; SEQ ID NO: 2064) (antibody, mouse IgG1, kappa, V domains shown)
VH: QVQLQQSGAELMKPGASVKISCKATGYTFSNYWIEWVKQRPGHGLEWIGEILPGSDSIKYNENFKGKATFTADTSSNTAYMQLSSLTSEDSAVYYCARRGNYPDYWGQGTTLTVSS
VL: DVVMTQTPLSLPVSLGDQASISCRSSQSLVHSNGNTYLHWYLQKPGQSPKLLIYKVSNRFSGVPDRFSGSGSGTDFTLKISRVEAEDLGVYFCSQSTHVPLTFGAGTKLELKR
[2]
  OD450: 0.3 OD450
[3]
  OD450: 1 OD450
[4]
  OD450: 0.7 OD450
[5]
  OD450: 0.1 OD450
[6]
  OD450: 0.1 OD450
[7]
  OD450: 0.2 OD450
[8]
  OD450: 0.1 OD450
[9]
  OD450: 0.1 OD450

B7: anti-tau antibody MC1 expressed from viral genome construct MC1LF.F2AH (TAU_ITR78; SEQ ID NO: 2067) (antibody, V domains shown)
VH: B6 VH
VL: B6 VL
[2]
  OD450: 0.7 OD450
[3]
  OD450: 1.1 OD450
[4]
  OD450: 1 OD450
[5]
  OD450: 0.1 OD450
[6]
  OD450: 0.1 OD450
[7]
  OD450: 0.4 OD450
[8]
  OD450: 0.1 OD450
[9]
  OD450: 0.2 OD450

B8: anti-tau antibody MC1 expressed from viral genome construct MC1LIRESH (TAU_ITR80; SEQ ID NO: 2069) (antibody, mouse IgG1, kappa, V domains shown)
VH: B6 VH
VL: B6 VL
[2]
  OD450: 0.6 OD450
[3]
  OD450: 1 OD450
[4]
  OD450: 0.9 OD450
[5]
  OD450: 0.1 OD450
[6]
  OD450: 0.1 OD450
[7]
  OD450: 0.3 OD450
[8]
  OD450: 0.1 OD450
[9]
  OD450: 0.2 OD450

B9: anti-tau antibody MC1 expressed from viral genome construct MC1LF2AH (TAU_ITR79; SEQ ID NO: 2068) (antibody, V domains shown)
VH: B6 VH
VL: B6 VL
[2]
  OD450: 0.7 OD450
[3]
  OD450: 1.1 OD450
[4]
  OD450: 1 OD450
[5]
  OD450: 0.1 OD450
[6]
  OD450: 0.1 OD450
[7]
  OD450: 0.4 OD450
[8]
  OD450: 0.1 OD450
[9]
  OD450: 0.2 OD450

B10: anti-tau antibody MC1 expressed from viral genome construct MC1HF.F2AL (TAU_ITR72; SEQ ID NO: 2061) (antibody, V domains shown)
VH: B6 VH
VL: B6 VL
[2]
  OD450: 0.7 OD450
[3]
  OD450: 1.1 OD450
[4]
  OD450: 1 OD450
[5]
  OD450: 0.1 OD450
[6]
  OD450: 0.1 OD450
[7]
  OD450: 0.5 OD450
[8]
  OD450: 0.2 OD450
[9]
  OD450: 0.3 OD450

B11: IPN002 F(ab')2_hIgG3_3hinge expressed from TAU_ITR122 (CBA, hGbin, HF.T2AL) (F(ab')2)
VH: EVHLVESGGALVKPGGSLKLSCAASGFSFSKYGMSWVRQTPDKRLEWVATISSSGSRTYYPDSVKGQFTISRDNAKNTLYLQMSSLKSEDTAMYYCSISWDGAMDYWGQGTSVTVSS
VL: DVLMTQTPLSLPVSLGDQASISCKSSQSIVHSNGNTYLEWYLQKPGQSPKLLVYKVSNRFSGVPDRFSGSGSGTDFTLKISRVEAEDLGTYYCFQGSLVPWAFGGGTKLEIK
[1]
  binding result: binds

B12: IPN002 scFv-HA expressed from TAU_ITR151 (CAG, LH, (G4S)2) (scFv)
scFv: DVLMTQTPLSLPVSLGDQASISCKSSQSIVHSNGNTYLEWYLQKPGQSPKLLVYKVSNRFSGVPDRFSGSGSGTDFTLKISRVEAEDLGTYYCFQGSLVPWAFGGGTKLEIKGGGGSGGGGSEVHLVESGGALVKPGGSLKLSCAASGFSFSKYGMSWVRQTPDKRLEWVATISSSGSRTYYPDSVKGQFTISRDNAKNTLYLQMSSLKSEDTAMYYCSISWDGAMDYWGQGTSVTVSS
notes: also called CAG-IPN004-LH-G4S2
[1]
  binding result: binds

B13: IPN002 scFv-HA expressed from TAU_ITR140 (CAG, HL, (G4S)4) (scFv)
scFv: EVHLVESGGALVKPGGSLKLSCAASGFSFSKYGMSWVRQTPDKRLEWVATISSSGSRTYYPDSVKGQFTISRDNAKNTLYLQMSSLKSEDTAMYYCSISWDGAMDYWGQGTSVTVSSGGGGSGGGGSGGGGSGGGGSDVLMTQTPLSLPVSLGDQASISCKSSQSIVHSNGNTYLEWYLQKPGQSPKLLVYKVSNRFSGVPDRFSGSGSGTDFTLKISRVEAEDLGTYYCFQGSLVPWAFGGGTKLEIK
notes: also called CAG-IPN008-HL-G4S4
[1]
  binding result: binds

B14: IPN002 scFv-HA expressed from TAU_ITR150 (CAG, LH, G4S) (scFv)
scFv: DVLMTQTPLSLPVSLGDQASISCKSSQSIVHSNGNTYLEWYLQKPGQSPKLLVYKVSNRFSGVPDRFSGSGSGTDFTLKISRVEAEDLGTYYCFQGSLVPWAFGGGTKLEIKGGGGSEVHLVESGGALVKPGGSLKLSCAASGFSFSKYGMSWVRQTPDKRLEWVATISSSGSRTYYPDSVKGQFTISRDNAKNTLYLQMSSLKSEDTAMYYCSISWDGAMDYWGQGTSVTVSS
notes: also called CAG-IPN004-LH-G4S; L(G4S)H
[1]
  binding result: binds

B15: IPN002 scFv-HA expressed from TAU_ITR152 (CAG, LH, (G4S)3) (scFv)
scFv: DVLMTQTPLSLPVSLGDQASISCKSSQSIVHSNGNTYLEWYLQKPGQSPKLLVYKVSNRFSGVPDRFSGSGSGTDFTLKISRVEAEDLGTYYCFQGSLVPWAFGGGTKLEIKGGGGSGGGGSGGGGSEVHLVESGGALVKPGGSLKLSCAASGFSFSKYGMSWVRQTPDKRLEWVATISSSGSRTYYPDSVKGQFTISRDNAKNTLYLQMSSLKSEDTAMYYCSISWDGAMDYWGQGTSVTVSS
notes: also called CAG-IPN005-LH-G4S3; L(G4S)3H
[1]
  binding result: binds

B16: IPN002 scFv-HA expressed from TAU_ITR141 (CAG, HL, (G4S)5) (scFv)
scFv: EVHLVESGGALVKPGGSLKLSCAASGFSFSKYGMSWVRQTPDKRLEWVATISSSGSRTYYPDSVKGQFTISRDNAKNTLYLQMSSLKSEDTAMYYCSISWDGAMDYWGQGTSVTVSSGGGGSGGGGSGGGGSGGGGSGGGGSDVLMTQTPLSLPVSLGDQASISCKSSQSIVHSNGNTYLEWYLQKPGQSPKLLVYKVSNRFSGVPDRFSGSGSGTDFTLKISRVEAEDLGTYYCFQGSLVPWAFGGGTKLEIK
notes: also called CAG-IPN0010-HL-G4S5
[1]
  binding result: binds

B17: IPN002 scFv-HA expressed from TAU_ITR142 (CAG, HL, (G4S)6) (scFv)
scFv: EVHLVESGGALVKPGGSLKLSCAASGFSFSKYGMSWVRQTPDKRLEWVATISSSGSRTYYPDSVKGQFTISRDNAKNTLYLQMSSLKSEDTAMYYCSISWDGAMDYWGQGTSVTVSSGGGGSGGGGSGGGGSGGGGSGGGGSGGGGSDVLMTQTPLSLPVSLGDQASISCKSSQSIVHSNGNTYLEWYLQKPGQSPKLLVYKVSNRFSGVPDRFSGSGSGTDFTLKISRVEAEDLGTYYCFQGSLVPWAFGGGTKLEIK
notes: also called CAG-IPN0011-HL-G4S6
[1]
  binding result: binds

B18: IPN002 scFv-HA expressed from TAU_ITR143 (CAG, HL, (G4S)8) (scFv)
scFv: EVHLVESGGALVKPGGSLKLSCAASGFSFSKYGMSWVRQTPDKRLEWVATISSSGSRTYYPDSVKGQFTISRDNAKNTLYLQMSSLKSEDTAMYYCSISWDGAMDYWGQGTSVTVSSGGGGSGGGGSGGGGSGGGGSGGGGSGGGGSGGGGSGGGGSDVLMTQTPLSLPVSLGDQASISCKSSQSIVHSNGNTYLEWYLQKPGQSPKLLVYKVSNRFSGVPDRFSGSGSGTDFTLKISRVEAEDLGTYYCFQGSLVPWAFGGGTKLEIK
notes: also called CAG-IPN0012-HL-G4S8
[1]
  binding result: binds
